Laboratory results: patent publication US20050158799A1 (published 2005)

Molecular target: T1, TLR3-YFP (Toll-Like Receptor 3 fused to yellow fluorescent polypeptide), stably expressed in HELA cells (UniProt O15455 24-904)
T1 construct: Immunoprecipitated from whole cell lysates with anti-GFP antibody; not shown: yellow fluorescent polypeptide (YFP)
T1 sequence (looked up): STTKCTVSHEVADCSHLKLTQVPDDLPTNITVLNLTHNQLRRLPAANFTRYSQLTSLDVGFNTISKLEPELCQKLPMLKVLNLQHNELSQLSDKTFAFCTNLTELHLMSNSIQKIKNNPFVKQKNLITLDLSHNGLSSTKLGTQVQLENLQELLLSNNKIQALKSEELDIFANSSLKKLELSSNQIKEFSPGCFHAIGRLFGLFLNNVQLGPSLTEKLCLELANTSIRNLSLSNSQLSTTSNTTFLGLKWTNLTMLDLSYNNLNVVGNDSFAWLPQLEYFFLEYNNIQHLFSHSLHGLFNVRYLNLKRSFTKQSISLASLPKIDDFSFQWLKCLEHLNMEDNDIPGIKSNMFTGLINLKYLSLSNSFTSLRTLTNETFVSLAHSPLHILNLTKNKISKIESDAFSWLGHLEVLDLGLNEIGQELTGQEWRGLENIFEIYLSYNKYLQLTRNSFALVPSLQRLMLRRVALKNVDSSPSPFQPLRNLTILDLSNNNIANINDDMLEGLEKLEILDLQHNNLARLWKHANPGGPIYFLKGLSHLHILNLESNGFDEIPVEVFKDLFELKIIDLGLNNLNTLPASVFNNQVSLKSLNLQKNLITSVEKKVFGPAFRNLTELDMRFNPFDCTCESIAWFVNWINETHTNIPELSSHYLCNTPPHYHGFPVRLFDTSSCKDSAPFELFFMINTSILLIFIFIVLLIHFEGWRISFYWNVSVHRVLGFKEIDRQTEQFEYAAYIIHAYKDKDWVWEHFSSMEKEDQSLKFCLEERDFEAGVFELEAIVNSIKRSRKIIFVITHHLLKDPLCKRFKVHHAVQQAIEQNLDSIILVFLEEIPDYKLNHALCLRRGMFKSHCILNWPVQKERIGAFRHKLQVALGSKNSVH
Assay: co-immunoprecipitation from TLR3-YFP HELA cell lysates with anti-GFP, blot for Flag
Protocol: 293T cells or TLR-expressing cells (10 cm plates) were transfected using GeneJuice (Novagen) with 4 μg of the indicated plasmids. One to two days after transfection, the cells were lysed in 1 ml of lysis buffer (20 mM Tris-HCl, 2 mM EDTA, 137 mM NaCl, 0.5% Triton X-100, 10% glycerol with protease inhibitors). Polyclonal anti-GFP (Molecular Probes), anti-IRF-3 or anti-CBP antibodies were incubated overnight with the cell lysates in […]. The immune complexes were precipitated and subjected to 4-15% SDS-PAGE and immunoblotted for FLAG- or CFP/YFP-tagged adapters using the anti-Flag mAb M2 (Sigma), or anti-GFP mAb (Clontech), which also recognizes the spectral variants of GFP.
Co-immunoprecipitation studies were performed to determine if TRAM interacts with TLR4. Stable TLR4^YFP- or TLR3^YFP-expressing HELA cells were transiently transfected with 4 μg of plasmid encoding Flag-Mal, Flag-TRAM or Flag TRAM-C117H. Forty-eight hours after transfection, whole cell lysates were immunoprecipitated with anti-GFP antibody and immunoprecipitated complexes immunoblotted for Flag-tagged adapters and co-immunoprecipitation experiments performed.

binding result: no binding
B1: Flag-tagged Mal (MyD88 adaptor-like; TIRAP) (other, UniProt P58753-2 1-235, looked up)
chain: MASSTSLPAPGSRPKKPLGKMADWFRQTLLKKPKKRPNSPESTSSDASQPTSQDSPLPPSLSSVTSPSLPPTHASDSGSSRWSKDYDVCVCHSEEDLVAAQDLVSYLEGSTASLRCFLQLRDATPGGAIVSELCQALSSSHCRVLLITPGFLQDPWCKYQMLQALTEAPGAEGCTIPLLSGLSRAAYPPELRFMYYVDGRGPDGGFRQVKEAVMRCKLLQEGEGERDSATVSDLL
notes: pEF-Bos-Flag Mal as described in Fitzgerald et al; also called Flag-Mal; pEF-Bos-Flag Mal; not shown: Flag tag
